Measured values published in patent US10471162B2, “Collagen targeted imaging probes” (priority 2014, dated 2019).

Test: in vivo
Design: species or system mouse
Conditions: male, C57Bl/6, mouse, iv, total radioactivity, Biodistribution % ID/lung
Method: Adult male C57Bl/6 mice were administered a single intratracheal dose of low dose bleomycin at 0.1 U/kg (low dose), in a total volume of 50 μl sterile saline. FTY720 was administered intraperitoneally to the mice at 1 mg/kg three times a week. To effect treatment in the low dose bleomycin, vascular leak model, the therapeutic murine antibody 3G9 (alpha-v-beta6 blocking antibody) and 1E6 (matched isotype control antibody) were used. Antibodies were injected into mice intraperitoneally three times week at a concentration of 1 mg/kg. All administrations of FTY720 and antibodies were initiated on day 0, ˜30 minutes before bleomycin challenge and continued throughout the duration of the experiments. […] The tissues were weighed, and radioactivity in each tissue was measured on a gamma counter (CobraII Auto gamma; Packard). The radioactivity in the lung was reported as percent injected dose per gram corrected with the average sham weight, which was calculated by dividing the counts of ^64Cu per average sham tissue weight in gram by the total of counts of the injected dose. The radioactivity in every other tissue was reported as percent injected dose per gram (% ID/g), which was calculated by dividing the counts of ^64Cu per gram of tissue by the total of counts of the injected dose. […] Uncertainties are expressed as the standard error of the mean.

## CC(C)C[C@H](NC(=O)[C@@H]1CSSC[C@H](NC(=O)[C@H](Cc2c[nH]cn2)NC(=O)[C@H](Cc2c[nH]c3ccccc23)NC(=O)[C@H](CCCCNC(=O)CNC(=O)CCC(C(=O)O)N2CCN(CC(=O)O)CCN(CC(=O)O)CC2)NC(=O)CNC(=O)CCC(C(=O)O)N2CCN(CC(=O)O)CCN(CC(=O)O)CC2)C(=O)N[C@@H]([C@@H](C)O)C(=O)N[C@@H]([C@@H](C)O)C(=O)N[C@@H](CCCCNC(=O)CCC(C(=O)O)N2CCN(CC(=O)O)CCN(CC(=O)O)CC2)C(=O)N[C@@H](Cc2ccccc2)C(=O)N2CCC[C@H]2C(=O)N[C@@H](Cc2c[nH]cn2)C(=O)N[C@@H](Cc2c[nH]cn2)C(=O)N[C@@H](Cc2ccc(O)cc2)C(=O)N1)C(=O)N[C@@H](Cc1ccc(O)cc1)C(=O)N[C@@H](Cc1ccc(-c2ccccc2)cc1)C(N)=O (single isomer, unassigned) [CBP8]
  tissue uptake dose at 2.5 h: 0.043 ± 0.001 %ID
